Measured values reported in patent publication US20230398228A1, “ERIBULIN-BASED ANTIBODY-DRUG CONJUGATES AND METHODS OF USE” (EISAI R&D MANAGEMENT CO., LTD., priority 2016, published 2023).
Read-outs that look alike come from different tables or passages of the source.

Legend:
SJSA-1 cells [1] = test: Serum stability assay, cytotoxicity readout on SJSA-1
Method: (§1) Following incubation, samples were frozen and stored at −20° C. until evaluation in cytotoxicity and binding assays. For cytotoxicity analyses, samples were evaluated on IGROV1 and SJSA-1 cells, as detailed in section 1.4.1. For binding assessment, samples were evaluated using a solution-based MSD ECL assay.
(§2) ER-001161319 is maytansine-based ADC comprising the same cleavable linker as VCP-eribulin, maleimido-PEG2-Val-Cit-pAB. PBS and serum controls were included to correct for any serum effects on assay performance.

IGROV1 cells [2] = test: Serum stability assay, cytotoxicity readout on IGROV1
Method: as §1, §2

IGROV1 cells [3] = test: Crystal Violet cytotoxicity assay (Examples 1 and 2), IGROV1
Method: (§3) Typically, test reagents were serial diluted 1:4 in 2 mL deep-well dilution plates, starting at 1 μM (10 dilutions total). 100 μL of diluted samples were added to the cell plates (starting concentration of test samples at 500 nM). […] Medium was discarded, plates were washed once with 200 μL DPBS, stained with 50 μL of 0.2% Crystal Violet solution at room temperature for 15 min, and then washed extensively with tap water. Plates were air-dried, and Crystal Violet was dissolved with 200 μL of 1% SDS solution. Plates were read at 570 nm. Data was analyzed using GraphPad Prism 6. Assays were performed using a seeding density of 1,000 cells per well and compound exposure was for a total of 5 days. When shorter-term exposure was desired, medium containing cytotoxic agents was removed after 4 hours and replaced with fresh growth medium prior to 5-day incubation. For OVCAR3, CaOV3, and NCI-H2110, cells were seeded at 3,000 cells/well and incubated for 5 days with ADC.
(§4) In vitro potency of prepared ADCs was assessed using a Crystal Violet assay as detailed in section 1.4.1.
(§5) SJSA-1 cells are a human osteosarcoma tumor cell line that are negative for folate receptor alpha.
(§6) Typically, test reagents were serially-diluted 1:4 in 2 mL deep-well dilution plates, starting at 1 μM (10 dilutions total). […] Plates were read at 570 nm. Data was analyzed using GraphPad Prism 6.

SJSA-1 cells [4] = test: Crystal Violet cytotoxicity assay (Examples 1 and 2), SJSA-1
Method: as §3, §4, §5
(§7) Typically, test reagents were serially-diluted 1:4 in 2 mL deep-well dilution plates, starting at 1 μM (10 dilutions total). 100 μL of diluted samples were added to the cell plates (starting concentration of test samples at 100 nM). […] Medium was discarded, plates were washed once with 200 μL DPBS, stained with 50 μL of 0.2% Crystal Violet solution at room temperature for 15 min, and then washed extensively with tap water. Plates were air-dried, and Crystal Violet was dissolved with 200 μL of 1% SDS solution. Plates were read at 570 nm. Data was analyzed using GraphPad Prism 6.

OVCAR3 cells = test: Crystal Violet cytotoxicity assay (Examples 1 and 2), OVCAR3; conditions: read-out: Cytotoxicity (IC50) OVCAR3; OVCAR3 cells; mean of replicate experiments, where performed
Method: as §3, §5
as §6, with “total). 100 μL of diluted samples were added to the cell plates (starting concentration of test samples at 100 nM).” for “total).”

NCI-H2110 cells [5] = conditions: read-out: IC50 on NCI-H2110; Example 1
Method: as §3, §5, §7

[6] = biological target: Recombinant human folate receptor alpha (Homo sapiens, UniProt P15328); test: ELISA, folate receptor alpha; format: binding; conditions: MORAb-003 and its ADCs
Method: Coating solution was discarded and the plates were washed three times using 1×PBS with 0.05% Tween-20 (PBST) buffer. Plates were blocked in 300 μL blocking buffer (1% BSA in PBST) at room temperature for 2 hours on an orbital shaker. […] Blocking buffer was discarded and 100 μL/well of diluted antibody was added to the plates. Plates were incubated at room temperature for 2 hours on an orbital shaker. Antibody solution was discarded and plates were washed three times using PBST. 100 μL/well of goat-anti-human IgG (H+L)-HRP (1:10,000 dilution in blocking buffer) solution was added to the plates, and plates were incubated at room temperature for 1 hour on an orbital shaker. Secondary antibody solution was discarded and plates were washed three times using PBST. 100 μL/well of QuantaBlu fluorogenic peroxidase substrate working solution (Thermo, Cat No. 15169) was added to the plates, and plates were incubated at room temperature for 30 min. Fluorescence was read at excitation 325 nm/emission 420 nm using a SpectraMax M5 (Molecular Devices). Data was analyzed using SoftMaxPro 5.4.2 software with 4-parameter fitting.

NCI-H2110 cells [7] = test: Crystal Violet cytotoxicity assay (Example 4), NCI-H2110; format: cell-based, human; conditions: mean of replicate experiments, read-out: Cytotoxicity IC50 (nM), NCI-H2110 (FR^med, MSLN^med)
Method: (§8) Test reagents were serial diluted 1:3 in 2 mL deep-well dilution plates, starting at 200 nM (10 dilutions total). […] Medium was then discarded. […] Plates were read at 570 nm. Data was analyzed using GraphPad Prism 6.

A431 cells = test: Crystal Violet cytotoxicity assay (Example 4), A431 (parental); format: cell-based, human; conditions: mean of replicate experiments, read-out: Cytotoxicity IC50 (nM), A431 (FR^neg, MSLN^neg)
Method: Test reagents were serial diluted 1:3 in 2 mL deep-well dilution plates, starting at 200 nM (10 dilutions total). […] Medium was then discarded. […] Plates were read at 570 nm. Data was analyzed using GraphPad Prism 6. […]
MAL-PEG2-Val-Cit-PAB-eribulin (ER-001159569) was conjugated to eight different anti-human mesothelin antibodies (Table 1). Binding affinities of the parental antibodies were determined by BIAcore analysis, as described above in section 1.6.1. Aggregation levels for all anti-human mesothelin ADCs were determined by SEC-HPLC and the DAR was analyzed using HIC-HPLC. In vitro potency was evaluated using a Crystal Violet cell-based cytotoxicity assay in A3 (A431 stabily transfected with human mesothelin (MSLN), MSLN^hi), OVCAR3 (human ovarian, MSLN^hi), HEC-251 (human endometroid, MSLN^med), H226 (human lung squamous cell mesothelioma, MSLN^lo), and A431 parental (MSLN^neg) cells.

IGROV1 cells [8] = test: Crystal Violet cytotoxicity assay (Example 4), IGROV1; format: cell-based, human; conditions: mean of replicate experiments, read-out: Cytotoxicity IC50 (nM), IGROV1 (FR^hi, MSLN^neg)
Method: as §8

[9] = SEC-HPLC aggregation analysis; format: physicochemical
Method: The antibody aggregation was analyzed by size-exclusion, high-performance liquid chromatography (SEC-HPLC) using an Agilent 1100. The mAb was diluted to 1 mg/mL in DPBS. The antibody (20 μL) was injected onto a TSKgel® SuperSW guard column (4.6 mm×3.5 cm, 4 μm pore size, Tosoh Bioscience), followed by a TSKgel® SuperSW3000 column (4.6 mm×30 cm, 4 μm pore size), eluted from the column with 0.1 M sodium phosphate containing 0.15 M NaCl and 0.05% NaN3, at pH 7.4, at a flow rate of 0.3 mL/min for 20 min. All data were analyzed using Agilent ChemStation software. Percent aggregation was calculated as [PAaggregate/PAtotal]*100, where PA=integrated peak area.
ADC was diluted to 1 mg/mL in DPBS. ADC (10 μL) was then injected onto an Advanced SEC 300A guard column (4.6 mm×3.5 cm, 2.7 μm pore size, Agilent), followed by a AdvancedBio 300A column (4.6 mm×30 cm, 2.7 μm pore size). ADC was eluted from the column with 0.1 M sodium phosphate containing 0.15 M NaCl and 5% IPA, pH 7.4 at a flow rate of 0.25 mL/min for 28 min. All data were analyzed using Agilent ChemStation software. Percent aggregation was calculated as [PAaggregate/PAtotal]*100, where PA=integrated peak area.

[10] = read-out: Cell-based cytotoxicity assay, EC50, Human Serum, 0 hr-PBS
[11] = read-out: Cell-based cytotoxicity assay, EC50, Human Serum, 0 hr-Serum
[12] = read-out: Cell-based cytotoxicity assay, EC50, Human Serum, 4 hr at 37° C.
[13] = read-out: Cell-based cytotoxicity assay, EC50, Human Serum, 24 hr at 37° C.
[14] = read-out: Cell-based cytotoxicity assay, EC50, Mouse Serum, 0 hr-Serum
[15] = read-out: Cell-based cytotoxicity assay, EC50, Mouse Serum, 4 hr at 37° C.
[16] = read-out: Cell-based cytotoxicity assay, EC50, Mouse Serum, 24 hr at 37° C.
[17] = read-out: Cell-based cytotoxicity assay, EC50, Mouse Serum, 48 hr at 37° C.
[18] = read-out: Cell-based cytotoxicity assay, EC50, PBS, 0 hr-PBS
[19] = read-out: Cell-based cytotoxicity assay, EC50, PBS, 0 hr-Serum
[20] = read-out: Cell-based cytotoxicity assay, EC50, PBS, 4 hr at 37° C.
[21] = read-out: Cell-based cytotoxicity assay, EC50, PBS, 24 hr at 37° C.
[22] = read-out: Cell-based cytotoxicity assay, EC50, PBS, 48 hr at 37° C.

Sequence of Recombinant human folate receptor alpha (P15328 25-234): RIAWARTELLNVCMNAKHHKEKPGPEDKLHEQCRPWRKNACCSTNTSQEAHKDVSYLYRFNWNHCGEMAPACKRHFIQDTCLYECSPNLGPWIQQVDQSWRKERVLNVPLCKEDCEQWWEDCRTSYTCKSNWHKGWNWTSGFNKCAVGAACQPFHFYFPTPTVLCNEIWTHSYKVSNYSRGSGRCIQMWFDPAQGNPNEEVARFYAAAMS

MORAb-003-PEG-pAB-duostatin 3 [M-0285]
EC50 (SJSA-1 cells [1]; [10]): > 10 nM | EC50 (SJSA-1 cells [1]; [11]): > 10 nM | EC50 (SJSA-1 cells [1]; [12]): > 10 nM | EC50 (SJSA-1 cells [1]; [13]): > 10 nM | EC50 (SJSA-1 cells [1]; read-out: Cell-based cytotoxicity assay, EC50, Human Serum, 48 hr at 37° C.): > 10 nM | EC50 (SJSA-1 cells [1]; read-out: Cell-based cytotoxicity assay, EC50, Mouse Serum, 0 hr-PBS): > 10 nM | EC50 (SJSA-1 cells [1]; [14]): > 10 nM | EC50 (SJSA-1 cells [1]; [15]): > 10 nM | EC50 (SJSA-1 cells [1]; [16]): > 10 nM | EC50 (SJSA-1 cells [1]; [17]): > 10 nM | EC50 (SJSA-1 cells [1]; [18]): > 10 nM | EC50 (SJSA-1 cells [1]; [19]): > 10 nM | EC50 (SJSA-1 cells [1]; [20]): > 10 nM | EC50 (SJSA-1 cells [1]; [21]): > 10 nM | EC50 (SJSA-1 cells [1]; [22]): > 10 nM | EC50 (IGROV1 cells [2]; [10]): 0.089 nM | EC50 (IGROV1 cells [2]; [11]): 0.078 nM | EC50 (IGROV1 cells [2]; [12]): 0.075 nM | EC50 (IGROV1 cells [2]; [13]): 0.074 nM | EC50 (IGROV1 cells [2]; [14]): 0.049 nM | EC50 (IGROV1 cells [2]; [15]): 0.049 nM | EC50 (IGROV1 cells [2]; [16]): 0.044 nM | EC50 (IGROV1 cells [2]; [17]): 0.051 nM | EC50 (IGROV1 cells [2]; [18]): 0.074 nM | EC50 (IGROV1 cells [2]; [19]): 0.063 nM | EC50 (IGROV1 cells [2]; [20]): 0.065 nM | EC50 (IGROV1 cells [2]; [21]): 0.059 nM | EC50 (IGROV1 cells [2]; [22]): 0.043 nM | cytotoxicity and specificity on IGROV1 cell line, in words (IGROV1 cells [3]; Example 1 screening, IGROV1 versus SJSA-1): specific cytotoxicity | IC50 (IGROV1 cells [3]; read-out: Cytotoxicity (IC50) IGROV1, IGROV1 cells, mean of replicate experiments, where performed): 0.3 nM | killing of FR-negative SJSA-1 cells (off-target), in words (SJSA-1 cells [4]; Example 1 screening): little cytotoxicity | IC50 (SJSA-1 cells [4]; read-out: Cytotoxicity (IC50) SJSA-1, SJSA-1 cells, mean of replicate experiments, where performed): > 100 nM | IC50 (OVCAR3 cells): 8.8 nM | IC50 (NCI-H2110 cells [5]): 14 nM

MORAb003-PEG2-eribulin
Antigen Binding ELISA, EC50 [6]: 0.00696 µg/mL | IC50 (NCI-H2110 cells [7]): 38.3 nM | IC50 (A431 cells): > 100 nM | IC50 (IGROV1 cells [8]): 0.33 nM

MORAb003-DBCO-PEG2 eribulin
Antigen Binding ELISA, EC50 [6]: 0.0191 µg/mL | IC50 (NCI-H2110 cells [7]): 38.1 nM | IC50 (A431 cells): > 100 nM | IC50 (IGROV1 cells [8]): 4.25 nM

MORAb003-DBCO-PEG4 eribulin
Antigen Binding ELISA, EC50 [6]: 0.0133 µg/mL | IC50 (NCI-H2110 cells [7]): 46.3 nM | IC50 (A431 cells): > 100 nM | IC50 (IGROV1 cells [8]): 1.32 nM

MORAb003-DBCO-PEG4 VCP eribulin
Antigen Binding ELISA, EC50 [6]: 0.016 µg/mL | IC50 (NCI-H2110 cells [7]): 4.28 nM | IC50 (A431 cells): > 100 nM | IC50 (IGROV1 cells [8]): 0.038 nM

MORAb003-PEG4-eribulin
Antigen Binding ELISA, EC50 [6]: 0.00931 µg/mL | SEC-HPLC Analysis % Frag. [9]: 0% | SEC-HPLC Analysis % Monomer [9]: 89.76% | IC50 (NCI-H2110 cells [7]): 21.6 nM | IC50 (A431 cells): > 100 nM | IC50 (IGROV1 cells [8]): 0.277 nM
